In data set [1] the target is T1, MtrE carrying a C-terminal TwinStrep-tag (Methanosarcina mazei, UniProt P80651 1-304).
T1 construct: MtrE of the Mtr complex, Methanosarcina mazei DSM 3647, locus MM_1547; the mtrE gene was amplified from chromosomal DNA with primers from the start codon to the last codon before the tag; The plasmid was put into wild-type M. mazei, so untagged chromosomal MtrE may stand in the trimeric complex beside the tagged copy; also called MtrE-TS; TS-tagged MtrE; source: M. mazei DSM 3647, from shuttle …
T1 sequence (looked up): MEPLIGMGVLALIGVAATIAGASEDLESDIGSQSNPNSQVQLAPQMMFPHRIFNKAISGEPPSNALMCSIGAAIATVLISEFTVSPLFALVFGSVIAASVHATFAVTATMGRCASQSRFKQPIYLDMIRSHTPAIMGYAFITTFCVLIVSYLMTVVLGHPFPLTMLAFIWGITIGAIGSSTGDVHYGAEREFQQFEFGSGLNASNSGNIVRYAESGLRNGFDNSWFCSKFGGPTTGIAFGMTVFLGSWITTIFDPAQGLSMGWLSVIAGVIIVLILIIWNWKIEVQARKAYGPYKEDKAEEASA
The experiment in a line: cryo-EM structure; single-particle cryo-EM of the native Mtr complex purified from methanol-grown M. mazei through MtrE-TwinStrep (Strep-Tactin), LMNG-solubilised, 6 mg/mL with 1 mM CHAPSO; buffer 50 mM MOPS/NaOH pH 7.0, 10 mM MgCl2, 150 mM NaCl; C1 consensus map with local refinements of MtrA and MtrH. The note with it: both partners purified.

Data set [2] concerns the molecule itself. The description is as above.

B1: MtrB, subunit B of the Mtr complex (natural protein, UniProt P80655 1-108, looked up)
chain: MSIVRIAPEINLVMDTESGTVTQERKDSIQYSMEPVFERVDKLDAIADDLVNSLSPSKPLLNTWPGRENTSYIAGIYSNSFYGIIVGLAFSGLLALIIYITRLMGGVV
notes: MtrB of the Mtr complex, Methanosarcina mazei DSM 3647 (Goe1); single-spanning stalk subunit; Three copies stand in the whole complex; also called chain B; helix B; source: endogenous, M. mazei membranes, LMNG-solubilised, co-purified with MtrE-TwinStrep on Strep-Tactin
With B1, the binding result in data set [1] is recorded as “binds”.

B2: MtrG, subunit G of the Mtr complex (natural protein, UniProt P80656 1-72, looked up)
chain: MDGKAPAAFVEPGEFNEVMKRLDQIDEKVEFVNSEVAQRIGKKVGRDIGILYGGVIGLLLFLIYVQISSMFM
notes: MtrG of the Mtr complex, Methanosarcina mazei DSM 3647 (Goe1); single-spanning stalk subunit; Three copies stand in the whole complex and form a three-helix bundle in the membrane plane; also called chain G; source: endogenous, M. mazei membranes, LMNG-solubilised, co-purified with MtrE-TwinStrep on Strep-Tactin
On to B2, for which, in data set [2], the binding result is “binds”.

B3: MtrF, subunit F of the Mtr complex (natural protein, UniProt P80654 1-72, looked up)
chain: MAEEHEKGVPMVLAPQMGAIDATVESIRYRAQLIARNQKLDSGVAATGIIGFAAGFLFSLLMVIVLPVAVGL
notes: MtrF of the Mtr complex, Methanosarcina mazei DSM 3647 (Goe1); single-spanning stalk subunit; Three copies stand in the whole complex; also called chain F; helix F; source: endogenous, M. mazei membranes, LMNG-solubilised, co-purified with MtrE-TwinStrep on Strep-Tactin
Take B3: in data set [1], the binding result was “binds”.

Source of the values: doi:10.1101/2025.06.02.657420, “Structure of the energy converting methyltransferase (Mtr) of Methanosarcina mazei in complex with an oxygen-stress responsive small protein” (bioRxiv, 2025).
